Earlier results as cited in PMC8314067.
Like-named read-outs stand apart in the source and are kept apart here.

How the values were obtained:
[1] = target: type I receptor complex (IL-4Rα/γc) (Homo sapiens) (UniProt P24394)
[2] = target: type II receptor complex (IL-4Rα/IL-13Rα1) (Homo sapiens) (UniProt P24394)
[3] = target: type II receptor complex (IL-4Rα/IL-13Rα1) (Homo sapiens) (UniProt P24394); remark: listed apart in the source

Substance	Kd [1] [nM]	Kd [2] [nM]	Kd [3] [nM]
IL-4 (from UniProt P05112)	559	487	
IL-13 (from UniProt P35225)			20
